B1: Vps4^E233Q (full-length yeast Vps4 containing an mutation) [Saccharomyces cerevisiae] / itself (parent)
chain: MSTGDFLTKGIELVQKAIDLDTATQYEEAYTAYYNGLDYLMLALKYEKNPKSKDLIRAKFTEYLNRAEQLKKHLESEEANAAKKSPSAGSGSNGGNKKISQEEGEDNGGEDNKKLRGALSSAILSEKPNVKWEDVAGLEGAKEALKEAVILPVKFPHLFKGNRKPTSGILLYGPPGTGKSYLAKAVATEANSTFFSVSSSDLVSKWMGESEKLVKQLFAMARENKPSIIFIDQVDALTGTRGEGESEASRRIKTELLVQMNGVGNDSQGVLVLGATNIPWQLDSAIRRRFERRIYIPLPDLAARTTMFEINVGDTPCVLTKEDYRTLGAMTEGYSGSDIAVVVKDALMQPIRKIQSATHFKDVSTEDDETRKLTPCSPGDDGAIEMSWTDIEADELKEPDLTIKDFLKAIKSTRPTVNEDDLLKQEQFTRDFGQEGN

Variants of: B1
Experiment: SEC
Settings: with itself; height of the peak at the hexamer elution position (~12 ml); read off a plot

response	Variant
13 mAU	chain 1 R289A

Same assay, conditions: with itself; in the presence of ATP; height of the peak at the hexamer elution position (~12 ml); read off a plot

response	Variant
65 mAU	chain 1 L396A
88 mAU	chain 1 K215A

Same assay, conditions: with itself; in the presence of ATP; height of the peak at the hexamer elution position (~12.5 ml); read off a plot

response	Variant
42 mAU	chain 1 D431A

Same assay, conditions: with itself; in the presence of ATP; height of the broad peak at the hexamer elution position (~11.5-12 ml); read off a plot

response	Variant
72 mAU	chain 1 E247A

Same assay, conditions: with itself; in the presence of ATP; height of the broad peak at the hexamer elution position (~12 ml); read off a plot

response	Variant
44 mAU	chain 1 K154A F155A

— PMC5520056, “Cryo-EM structures of the ATP-bound Vps4^E233Q hexamer and its complex with Vta1 at near-atomic resolution” (Nature Communications, 2017)
